Laboratory results taken from article PMC3943411, “Modular assembly of designer PUF proteins for specific post-transcriptional regulation of endogenous RNA”.

Columns and labels:
Conditions in all cases: protein: recombinant; tags: His-tag (pET28a); label: 5' 6-carboxyfluorescein
PUF (S4) [1] = biological target: T1, PUF (S4) (human, UniProt Q14671 828-1176, C935N;N971C;H972Y;C1007N;N1043C); assay: fluorescence polarization/anisotropy; cognate; 1 nM RNA; 20 mM Tris-HCl pH 7.5, 0.5 mM EDTA, 50 mM KCl, 0.1 mg/ml BSA; temperature not stated; protein corrected for active fraction (about 30%); KD mean ± SD, n = 3
T1 sequence: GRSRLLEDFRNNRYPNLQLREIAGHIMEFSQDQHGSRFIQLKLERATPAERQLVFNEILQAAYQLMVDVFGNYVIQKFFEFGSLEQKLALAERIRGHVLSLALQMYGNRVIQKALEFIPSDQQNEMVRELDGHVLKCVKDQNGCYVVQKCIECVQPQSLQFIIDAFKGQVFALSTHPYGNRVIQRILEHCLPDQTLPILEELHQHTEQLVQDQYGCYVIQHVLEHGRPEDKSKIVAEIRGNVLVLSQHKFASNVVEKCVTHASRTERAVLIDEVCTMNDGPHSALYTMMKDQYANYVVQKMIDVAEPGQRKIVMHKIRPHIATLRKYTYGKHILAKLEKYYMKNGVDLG

PUF (S8) = biological target: T2, PUF (S8) (human, UniProt Q14671 828-1176, S863N;N899S;Q903E;C935N;N971C;H972Y;C1007N;N1043C;S1079N;E1083Q;N1122C); assay: as above
T2 sequence: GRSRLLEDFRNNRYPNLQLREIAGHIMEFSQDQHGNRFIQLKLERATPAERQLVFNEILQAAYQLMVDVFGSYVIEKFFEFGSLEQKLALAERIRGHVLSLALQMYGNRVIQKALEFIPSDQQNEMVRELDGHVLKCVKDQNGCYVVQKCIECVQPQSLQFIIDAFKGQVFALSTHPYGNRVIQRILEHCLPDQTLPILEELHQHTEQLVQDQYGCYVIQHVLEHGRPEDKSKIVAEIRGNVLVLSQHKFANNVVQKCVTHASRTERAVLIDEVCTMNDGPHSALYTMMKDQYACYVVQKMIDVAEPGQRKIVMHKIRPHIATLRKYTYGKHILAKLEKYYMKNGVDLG

PUF (S6) [2] = biological target: T3, PUF (S6) (human, UniProt Q14671 828-1176, S863N;C935N;N971C;H972Y;C1007N;N1043C;N1122C); assay: as above
T3 sequence: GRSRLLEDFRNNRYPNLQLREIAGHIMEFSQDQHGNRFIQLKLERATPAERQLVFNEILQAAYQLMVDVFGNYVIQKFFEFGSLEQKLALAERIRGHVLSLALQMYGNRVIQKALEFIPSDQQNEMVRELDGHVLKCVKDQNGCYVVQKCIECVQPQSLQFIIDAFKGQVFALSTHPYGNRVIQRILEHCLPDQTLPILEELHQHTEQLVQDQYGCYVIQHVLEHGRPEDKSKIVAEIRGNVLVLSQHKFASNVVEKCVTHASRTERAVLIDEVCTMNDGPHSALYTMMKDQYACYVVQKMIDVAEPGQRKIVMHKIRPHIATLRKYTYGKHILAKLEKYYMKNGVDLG

PUF (S2) [3] = biological target: T4, PUF (S2) (human, UniProt Q14671 828-1176, S863N;N1122C); assay: fluorescence polarization/anisotropy; noncognate; 1 nM RNA; 20 mM Tris-HCl pH 7.5, 0.5 mM EDTA, 50 mM KCl, 0.1 mg/ml BSA; temperature not stated; protein corrected for active fraction (about 30%); KD mean ± SD, n = 3
PUF (S6) [4] = biological target: T3, PUF (S6); assay: as above
PUF (S4) [5] = biological target: T1, PUF (S4); assay: as above
PUF (S2) [6] = biological target: T4, PUF (S2); assay: fluorescence polarization/anisotropy; cognate; 1 nM RNA; 20 mM Tris-HCl pH 7.5, 0.5 mM EDTA, 50 mM KCl, 0.1 mg/ml BSA; temperature not stated; protein corrected for active fraction (about 30%); KD mean ± SD, n = 3

CCAGAAUUGAUAUUAUUCG (ssRNA) [S4 RNA (UGAUAUUA)]
Kd (PUF (S4) [1]): 0.59 ± 0.1 nM

CCAGAAUAUAUAUGUUUCG (ssRNA) [S8 RNA (AUAUAUGU)]
Kd (PUF (S8)): 2.79 ± 0.69 nM

CCAGAAUAGAUAUUUUUCG (ssRNA) [S6 RNA (AGAUAUUU)]
Kd (PUF (S6) [2]): 6.05 ± 0.25 nM

CCAGAAUUGUAUAUAUUCG (ssRNA) [WT RNA (UGUAUAUA)]
Kd (PUF (S2) [3]): 6.29 ± 2.8 nM | Kd (PUF (S6) [4]): 89.6 ± 16.5 nM | Kd (PUF (S4) [5]): 5.77 ± 1.33 nM

CCAGAAUAGUAUAUUAUUCG (ssRNA) [S2 RNA (AGUAUAUU)]
Kd (PUF (S2) [6]): 0.76 ± 0.11 nM
